Numbering of substitutions follows the chain as printed.
B1: Hu1B5-H1/Hu1B5-L2: humanized anti-A2aR IgG1 FES antibody; HCVR SEQ ID NO:51, LCVR SEQ ID NO:72 (antibody, V domains shown)
VH: QVQLVQSGAEVKKPGASVKVSCKASGFTFTRFWMNWVRQAPGQGLEWMGRIDPYDSETQYNHKFWDRVTMTRDTSTSTVYMELSSLRSEDTAVYYCGRSLYGKGDYWGQGTTVTVSS
VL: DVVMTQSPLSLPVTLGQPASISCRSSQSIVHSNGNTYLEWYQQRPGQSPRRLIYKVSNRFSGVPDRFSGSGSGTDFTLKISRVEAEDVGVYYCFQGSHVPLTFGGGTKVEIK
B2: Hu1B5-H2/Hu1B5-L1: humanized anti-A2aR IgG1 FES antibody; HCVR SEQ ID NO:52, LCVR SEQ ID NO:71 (antibody, V domains shown)
VH: B1 VH with Q1E, A24T, R72V
VL: B1 VL with Y41F
modifications: IgG1 FES constant regions
B3: Hu1B5-H2.1/Hu1B5-L1: humanized anti-A2aR IgG1 FES antibody; HCVR SEQ ID NO:53, LCVR SEQ ID NO:71 (antibody, V domains shown)
VH: B1 VH with Q1E, A24T, M48I, R72V
VL: B1 VL with Y41F
B4: Hu3F8-H5/Hu3F8-L2: humanized anti-A2aR IgG1 FES antibody; HCVR SEQ ID NO:68, LCVR SEQ ID NO:85 (antibody, V domains shown)
VH: EVQLVQSGAEVKKPGASVKVSCKASGFTFTRYWMNWVRQAPGQGLEWIGRIDPSDSETHYNAKFWGRATLTVDKSTSTVYMELSSLRSEDTAVYYCLRSLYGKGDYWGQGTTVTVSS
VL: B1 VL with F94Y
B5: Hu3F8-H4/Hu3F8-L2: humanized anti-A2aR IgG1 FES antibody; HCVR SEQ ID NO:67, LCVR SEQ ID NO:85 (antibody, V domains shown)
VH: B4 VH with A62H
VL: B1 VL with F94Y
B6: Hu3F8-H3/Hu3F8-L2: humanized anti-A2aR IgG1 FES antibody; HCVR SEQ ID NO:66, LCVR SEQ ID NO:85 (antibody, V domains shown)
VH: B4 VH with A62H, K74T
VL: B1 VL with F94Y
B7: Hu3F6-H3/Hu3F6-L2: humanized anti-A2aR IgG1 FES antibody; HCVR SEQ ID NO:60, LCVR SEQ ID NO:77 (antibody, V domains shown)
VH: B4 VH with A24T, T28A, R31S, T58A, N61H, A62H, K74T, T76S, Q109H
VL: B1 VL with I29L, S32R, F94Y
B8: Hu3F8-H2/Hu3F8-L2: humanized anti-A2aR IgG1 FES antibody; HCVR SEQ ID NO:65, LCVR SEQ ID NO:85 (antibody, V domains shown)
VH: B4 VH with I48M, A62H, A68V, L70M, K74T
VL: B1 VL with F94Y
B9: Hu3F6-H4/Hu3F6-L1: humanized anti-A2aR IgG1 FES antibody; HCVR SEQ ID NO:61, LCVR SEQ ID NO:76 (antibody, V domains shown)
VH: B4 VH with A24T, T28A, R31S, T58A, N61H, A62H, T76S, Q109H
VL: B1 VL with I29L, S32R, Y41F, F94Y
B10: Hu3F8-H6/Hu3F8-L1: humanized anti-A2aR IgG1 FES antibody; HCVR SEQ ID NO:70, LCVR SEQ ID NO:84 (antibody, V domains shown)
VH: EVQLVQSGAEVKKPGESLRISCKASGFTFTRYWMNWVRQMPGKGLEWIGRIDPSDSETHYNHKFWGHATLSVDKSSSTVYLQWSSLKASDTAMYYCLRSLYGKGDYWGQGTTVTVSS
VL: B1 VL with Y41F, F94Y
B11: Hu3F6-H2/Hu3F6-L2: humanized anti-A2aR IgG1 FES antibody; HCVR SEQ ID NO:59, LCVR SEQ ID NO:77 (antibody, V domains shown)
VH: EVQLVQSGAEVKKPGASVKVSCKTSGFAFTSYWMNWVRQAPGQGLEWMGRIDPSDSEAHYHHKFWGRVTMTVDTSTSTVYMELSSLRSEDTAVYYCLRSLYGKGDYWGHGTTVTVSS
VL: B1 VL with I29L, S32R, F94Y
modifications: IgG1 FES constant regions
B12: Hu3F8-H5/Hu3F8-L1: humanized anti-A2aR IgG1 FES antibody; HCVR SEQ ID NO:68, LCVR SEQ ID NO:84 (antibody, V domains shown)
VH: B4 VH
VL: B1 VL with Y41F, F94Y
B13: Hu3F6-H5/Hu3F6-L1: humanized anti-A2aR IgG1 FES antibody; HCVR SEQ ID NO:62, LCVR SEQ ID NO:76 (antibody, V domains shown)
VH: B11 VH with M48I, H61A, V68A, M70L, T74K, T76S
VL: B1 VL with I29L, S32R, Y41F, F94Y
B14: Hu3F6-H5/Hu3F6-L2: humanized anti-A2aR IgG1 FES antibody; HCVR SEQ ID NO:62, LCVR SEQ ID NO:77 (antibody, V domains shown)
VH: B11 VH with M48I, H61A, V68A, M70L, T74K, T76S
VL: B1 VL with I29L, S32R, F94Y
B15: Hu3F6-H3/Hu3F6-L1: humanized anti-A2aR IgG1 FES antibody; HCVR SEQ ID NO:60, LCVR SEQ ID NO:76 (antibody, V domains shown)
VH: B11 VH with M48I, V68A, M70L, T76S
VL: B1 VL with I29L, S32R, Y41F, F94Y
B16: Hu3F8-H3/Hu3F8-L1: humanized anti-A2aR IgG1 FES antibody; HCVR SEQ ID NO:66, LCVR SEQ ID NO:84 (antibody, V domains shown)
VH: B4 VH with A62H, K74T
VL: B1 VL with Y41F, F94Y
B17: Hu3F8-H4/Hu3F8-L1: humanized anti-A2aR IgG1 FES antibody; HCVR SEQ ID NO:67, LCVR SEQ ID NO:84 (antibody, V domains shown)
VH: B4 VH with A62H
VL: B1 VL with Y41F, F94Y

target: human A2aR (Homo sapiens, UniProt P29274); assay: Binding of humanized anti-A2aR antibodies in transfected Expi293F cell supernatant to human A2aR on HEK293 cells (FACS, MFI); details: supernatant normalized to 1 μg/ml antibody; HEK293 cells stably overexpressing human A2aR; greater MFI = stronger binding; parental value average of triplicate
Sequence (P29274 whole entry): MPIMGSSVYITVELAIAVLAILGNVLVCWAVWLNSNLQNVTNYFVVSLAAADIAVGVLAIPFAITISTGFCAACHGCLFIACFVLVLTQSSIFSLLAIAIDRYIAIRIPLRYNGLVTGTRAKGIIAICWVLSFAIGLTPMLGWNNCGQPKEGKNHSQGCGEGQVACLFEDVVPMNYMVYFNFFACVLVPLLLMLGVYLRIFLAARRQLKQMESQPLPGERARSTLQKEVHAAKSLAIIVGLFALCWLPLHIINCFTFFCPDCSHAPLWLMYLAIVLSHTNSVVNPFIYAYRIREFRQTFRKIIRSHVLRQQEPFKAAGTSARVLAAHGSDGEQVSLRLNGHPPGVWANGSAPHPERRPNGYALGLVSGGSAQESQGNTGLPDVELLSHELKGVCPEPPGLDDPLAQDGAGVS
Experimental: Briefly, HEK293 cells that stably overexpress human A2aR (HEK-hA2aR OCL, BPS Bioscience, Cat. 79381) were collected from fresh culture. Cells were then resuspended in FACS buffer (1×DPBS/1% FBS) at 10^6/ml concentration. One hundred microliters (100 μl) of cells were aliquoted into each well of a 96 well plates. After centrifugation, cell pellets in each well were then resuspended with 100 μl normalized supernatant samples containing 1 μg/ml humanized anti-A2aR monoclonal antibody variants collected from transfected Expi293 cell culture. The supernatants were mixed with the cells and incubated on ice for 1 hours. After washing the mixtures of the supernatants containing expressed antibodies and the A2aR-expressing cells with FACS buffer, one hundred microliters (100 μl) of 1:400 diluted PE-conjugated anti-human Fc secondary antibody (Jackson Immuno Research, Cat. 109-116-098) was added to each well followed by an incubation for 30 minutes on ice. After washes with FACS buffer, stained cells were resuspended in 150 μl of 7-AAD (Biolegend, Cat. 420404) diluted 1:100 in 1×DPBS buffer and incubate for 5 minutes in the dark at room temperature before FACS analysis. The mean fluorescence intensity (MFI) was obtained using Guava 11HT or 5HT (Luminex). Data was analyzed using Flowjo software.
As shown in Tables 22-24, exemplary humanized anti-A2aR antibodies bind to A2aR expressed on a cell surface. A greater MFI value means stronger binding of the exemplary antibody to A2aR expressed on a cell surface.

binding to human A2aR on cell surface, mean fluorescence intensity (MFI) | Molecule
62 | B1
165 | B2
145 | B3

same assay, conditions: supernatant with 1 μg/ml antibody; HEK293 overexpressing human A2aR; heavy chain (row) x light chain

MFI, binding to human A2aR on cell surface (3F8-12E9 derived) | MFI, binding to human A2aR on cell surface (3F6-9G5 derived) | Molecule
147 |  | B4
131 |  | B5
93 |  | B6
 | 200 | B7
38 |  | B8
 | 21 | B9
158 |  | B10
 | 146 | B11
58 |  | B12
 | 25 | B13
 | 191 | B14
 | 12 | B15
64 |  | B16
110 |  | B17
